The values that follow come from patent US20020037514A1, “Identification of nuclear receptor-dependent coregulator recruitment” (priority 2000, published 2002).

The target of test [1] is T1, RARα-V5/RXRγ/DR-5 ternary complex (Homo sapiens, UniProt P10276).
T1 construct: the nuclear receptor subunits used in the invention are full length nuclear receptor monomer subunits; expressed in transfected cells; host or cells: CV-1 (green monkey kidney), whole-cell lysate
T1 sequence (P10276 1-462): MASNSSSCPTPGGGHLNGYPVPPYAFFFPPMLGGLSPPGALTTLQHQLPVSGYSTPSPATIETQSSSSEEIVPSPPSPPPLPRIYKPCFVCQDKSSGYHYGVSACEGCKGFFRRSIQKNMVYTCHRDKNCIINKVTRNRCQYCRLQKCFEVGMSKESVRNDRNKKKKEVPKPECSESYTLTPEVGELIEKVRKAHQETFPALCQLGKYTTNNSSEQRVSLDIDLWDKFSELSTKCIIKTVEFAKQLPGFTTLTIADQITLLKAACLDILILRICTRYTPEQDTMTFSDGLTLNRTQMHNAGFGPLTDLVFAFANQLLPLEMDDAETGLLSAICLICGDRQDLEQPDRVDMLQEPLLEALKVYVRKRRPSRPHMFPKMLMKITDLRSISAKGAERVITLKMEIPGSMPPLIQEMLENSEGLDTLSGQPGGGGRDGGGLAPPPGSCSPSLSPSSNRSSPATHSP
T1 sequence (P28705 1-463 partner): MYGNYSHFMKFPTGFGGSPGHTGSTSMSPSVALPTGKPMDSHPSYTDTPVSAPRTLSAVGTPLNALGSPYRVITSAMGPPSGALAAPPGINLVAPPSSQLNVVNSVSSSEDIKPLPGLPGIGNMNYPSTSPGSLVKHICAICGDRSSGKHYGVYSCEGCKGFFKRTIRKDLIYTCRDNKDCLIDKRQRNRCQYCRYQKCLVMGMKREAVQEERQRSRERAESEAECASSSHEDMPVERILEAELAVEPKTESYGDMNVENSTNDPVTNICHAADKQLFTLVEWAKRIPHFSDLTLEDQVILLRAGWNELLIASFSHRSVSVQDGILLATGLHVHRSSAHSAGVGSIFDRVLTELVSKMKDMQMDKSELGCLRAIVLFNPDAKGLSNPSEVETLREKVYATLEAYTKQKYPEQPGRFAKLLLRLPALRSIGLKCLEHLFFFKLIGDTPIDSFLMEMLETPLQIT
Briefly: LXD peptide competition of ATRA-induced co-activator recruitment (Example 7, FIG. 8A). The conditions noted are these: DR-5 RARE; for effect of peptide on ATRA-induced recruitment of ACTR: ACTR peptides at 20 μl (so in the source); for effect of peptide on ATRA-induced recruitment of SRC-1: SRC-1 peptides at 40 μl (so in the source). The format is biochemical. The source says: (§1) Nolte, R. T. et al., Nature 395:137-143 (1998). We addressed the importance of each of the three LXDs in mediating co-activator-receptor interaction using synthetic peptides comprising the LXD1, LXD2 or LXD3 amino acid sequences as competitors with SRC-1 in the DNA modified immunoprecipitation methods of the present invention. These peptides have the following amino acid sequences (with the characteristic LXXLL motif shown in bold):
(§2) Transfection, DR-5 oligonucleotide treatment, ligand treatment, immunoprecipitation and detection of associated co-factors were performed essentially as shown in the previous Examples. CV-1 cells were transfected with plasmids expressing either RARα/RXRγ-V5 or with RARγ/RXRα-V5. Synthetic LXD peptides were added to the cell lysate before the addition of retinoids at a concentration of 20 (ACTR) and 40 (SRC-1) […].

Test [2] has as its target T2, RARγ-V5/RXRα heterodimer (Homo sapiens, UniProt P13631). Briefly: DNA modified immunoprecipitation, co-repressor N-CoR recruitment (Example 6). The format is biochemical. The conditions noted are these: ligand 1 μM.
Protocol: Immunoprecipitation with mouse anti-V5 antibody and Western analysis were conducted as set forth above.
Test [3] addresses RARβ-V5/RXRα heterodimer (human) (UniProt P10826). Briefly: anti-V5 co-IP from CV-1 lysate, Western anti-SRC-1; 1 uM AGN 194204 with DR-5 RARE against 1 uM TTNPB.
Test [4] addresses RARα/RXR heterodimer bound to a DR-5 retinoic acid receptor response element (Example 9) (human) (UniProt P10276). Briefly: DNA dependent co-IP with DR-5 RARE, Western anti-ACTR; 1 uM ligand AGN196412.
The target of a further test is T3, RARγ/RXRα heterodimer (Homo sapiens, UniProt P13631).
T3 sequence (P13631 1-454): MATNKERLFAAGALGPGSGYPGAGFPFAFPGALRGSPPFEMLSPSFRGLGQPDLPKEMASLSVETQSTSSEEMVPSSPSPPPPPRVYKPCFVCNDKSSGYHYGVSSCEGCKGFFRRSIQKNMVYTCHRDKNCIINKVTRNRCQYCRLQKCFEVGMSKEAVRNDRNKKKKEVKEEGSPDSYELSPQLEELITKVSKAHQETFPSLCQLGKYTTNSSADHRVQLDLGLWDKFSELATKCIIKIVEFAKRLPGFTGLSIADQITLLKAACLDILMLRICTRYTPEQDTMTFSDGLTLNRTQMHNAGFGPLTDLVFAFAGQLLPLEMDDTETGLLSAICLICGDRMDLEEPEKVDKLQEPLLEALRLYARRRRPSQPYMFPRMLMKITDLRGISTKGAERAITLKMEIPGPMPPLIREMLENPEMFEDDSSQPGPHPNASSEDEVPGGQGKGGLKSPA
T3 sequence (P19793 1-462 partner): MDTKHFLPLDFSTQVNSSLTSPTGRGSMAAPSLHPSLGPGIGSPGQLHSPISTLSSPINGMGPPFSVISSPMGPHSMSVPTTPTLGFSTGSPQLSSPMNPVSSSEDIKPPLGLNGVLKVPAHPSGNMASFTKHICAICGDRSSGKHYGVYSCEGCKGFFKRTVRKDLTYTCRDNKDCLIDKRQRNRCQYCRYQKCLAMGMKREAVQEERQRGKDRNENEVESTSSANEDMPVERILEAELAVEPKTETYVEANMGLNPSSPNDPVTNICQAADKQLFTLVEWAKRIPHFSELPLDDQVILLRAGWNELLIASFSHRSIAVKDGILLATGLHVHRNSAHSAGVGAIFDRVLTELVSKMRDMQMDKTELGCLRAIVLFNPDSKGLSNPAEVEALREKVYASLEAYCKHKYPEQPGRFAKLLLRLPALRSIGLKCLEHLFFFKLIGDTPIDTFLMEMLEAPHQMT
Briefly: LXD peptide competition of ATRA-induced co-activator recruitment (Example 7, FIG. 8B). The format is biochemical. The note with it: DR-5 RARE, compared with the RARα/RXRγ experiment.
Excerpt: as §1, §2

For test [5], the target named is T2, RARγ-V5/RXRα heterodimer. Briefly: anti-V5 co-IP from CV-1 lysate, Western anti-N-CoR; DR-5 RARE, 1 uM ligand.
For test [6], the target named is RARα/RXR heterodimer bound to a DR-5 retinoic acid receptor response element (Example 9) (human) (UniProt P10276). Description: DNA dependent co-IP with DR-5 RARE, Western anti-SRC-1; 1 uM ligand AGN194794, 196382 or 196412 (which ligand gives which end is not told).
Test [7] has the same target. Description: DNA dependent co-IP with DR-5 RARE, Western anti-SRC-1; 1 uM ligand AGN194365.

Sequence of RARβ-V5/RXRα heterodimer (human) (P10826 other isoform, or with tags, fused parts or gaps): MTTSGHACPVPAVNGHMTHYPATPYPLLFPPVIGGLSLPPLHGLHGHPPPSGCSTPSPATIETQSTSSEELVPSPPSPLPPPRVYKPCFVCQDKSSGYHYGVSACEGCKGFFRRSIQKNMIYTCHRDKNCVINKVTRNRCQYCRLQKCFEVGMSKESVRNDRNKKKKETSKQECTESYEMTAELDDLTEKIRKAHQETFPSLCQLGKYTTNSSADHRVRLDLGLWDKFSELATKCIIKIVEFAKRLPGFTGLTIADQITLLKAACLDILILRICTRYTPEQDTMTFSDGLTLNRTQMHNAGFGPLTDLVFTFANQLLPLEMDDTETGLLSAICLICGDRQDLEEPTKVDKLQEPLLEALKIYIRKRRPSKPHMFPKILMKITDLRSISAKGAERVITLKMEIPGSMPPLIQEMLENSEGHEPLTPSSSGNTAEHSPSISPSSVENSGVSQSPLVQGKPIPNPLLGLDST

With “LESKGHKKLLQLLTCSSDDRGH (Nuclear co-activator LXD-containing peptide) [ACTR LXD1]”, in test [1], the “effect of peptide on ATRA-induced recruitment of ACTR” value was “abolished”. On to `CC1(C)CCC(c2ccc(F)cc2)c2cc(C#Cc3ccc(C(=O)O)cc3)ccc21` (centres unmarked) [AGN 193840], for which the N-CoR recruitment result at RARγ-V5/RXRα heterodimer [2] (with DR-5 RARE 0.5 μg/ml) is reported as “led to N-COR recruitment”. In the case of “KESKDHQLLRYLLDKDEKDLRS (Nuclear co-activator LXD-containing peptide) [SRC-1 LXD3]”, the “effect of peptide on ATRA-induced recruitment of SRC-1” value in test [1] is given as “completely abolished”.

Take “nuclear receptor co-activator SRC-1, endogenously expressed by CV-1 cells”: in test [3], the amount of SRC-1 detected compared to treatment with TTNPB was 30%. As to “nuclear receptor co-activator ACTR (other; other documents disagree on this pair)”, the % recruitment relative to TTNPB in test [4] came out at 65%. As for “KYSQTSHKLVQLLTTTAEQQLR (Nuclear co-activator LXD-containing peptide) [SRC-1 LXD1]”, the “amount of SRC-1 associated in the presence of peptide” value with RARγ/RXRα heterodimer was “somewhat greater”. In addition, the “effect of peptide on ATRA-induced recruitment of SRC-1” value in test [1] is “no effect”. In the case of `Cc1ccc(C2CCC(C)(C)c3ccc(C#Cc4ccc(C(=O)O)cc4)cc32)cc1` (centres unmarked) [AGN 193109], the “N-CoR recruitment compared to AGN 193840” value on RARγ-V5/RXRα heterodimer [2] (with DR-5 RARE) is on record as “approximately two-fold increase”. Further, the values for the N-CoR recruitment result on RARγ-V5/RXRα heterodimer [2] (with DR-5 RARE 0.5 μg/ml) and on RARγ-V5/RXRα heterodimer [2] (with G-5-G DNA element instead of DR-5 RARE) were “led to N-COR recruitment” and “failed to result in the detection of co-repressor”, respectively.

In turn, nuclear receptor co-repressor N-CoR registered a fold increase in N-CoR recruitment with AGN 193109 compared to AGN 193840 in the test with RARγ-V5/RXRα heterodimer [5] of 2 fold. “nuclear receptor co-activator SRC-1, endogenously expressed by CV-1 cells (other; other documents disagree on this pair)”: the % recruitment relative to TTNPB in test [6] is 23 to 32%. Further, in test [7], the % recruitment compared to TTNPB turned out to be 65%. Turning to “LLQEKHRTLHKLLQNGNSPAEV (LLQEKHRILHKLLQNGNSPAEV; Nuclear co-activator LXD-containing peptide) [ACTR LXD2]”, in test [1], the “effect of peptide on ATRA-induced recruitment of ACTR” value is “abolished”.
